Laboratory results published in US20230002480A1.

Assays:
Experiment in all cases: cell-based or functional assay
[1] = target: HIV-1 Env of pseudovirus Ce2060_G9 (HIV-1)
[2] = target: HIV-1 Env of pseudovirus WITO4160.33 (HIV-1)
[3] = target: HIV-1 Env of pseudovirus Ce704809221_1B3 (HIV-1)
[4] = target: HIV-1 Env of pseudovirus CNE21 (HIV-1)
[5] = target: HIV-1 Env of pseudovirus Q461.e2 (HIV-1)
[6] = target: HIV-1 Env of pseudovirus CAP210.2.00.E8 (HIV-1)
[7] = target: HIV-1 Env of pseudovirus AC10.0.29 (HIV-1)
[8] = target: HIV-1 Env of pseudovirus Du172.17 (HIV-1)
[9] = target: HIV-1 Env of pseudovirus CNE20 (HIV-1)
[10] = target: HIV-1 Env of pseudovirus 1056_10_TA11_1826 (HIV-1)
[11] = target: HIV-1 Env of pseudovirus ZM135M.PL10a (HIV-1)
[12] = target: HIV-1 Env of pseudovirus ZM197M.PB7 (HIV-1)
[13] = target: HIV-1 Env of pseudovirus Ce0393_C3 (HIV-1)
[14] = target: HIV-1 Env of pseudovirus ZM249M.PL1 (HIV-1)
[15] = target: HIV-1 Env of pseudovirus Ce0682_E4 (HIV-1)
[16] = target: HIV-1 Env of pseudovirus 191084 B7-19 (HIV-1)
[17] = target: HIV-1 Env of pseudovirus TRJO4551.58 (HIV-1)
[18] = target: HIV-1 Env of pseudovirus THRO4156.18 (HIV-1)
[19] = target: HIV-1 Env of pseudovirus 928-28 (HIV-1)
[20] = target: HIV-1 Env of pseudovirus 246F C1G (HIV-1)
[21] = target: HIV-1 Env of pseudovirus T257-31 (HIV-1)
[22] = target: HIV-1 Env of pseudovirus 7030102001E5(Rev-) (HIV-1)
[23] = target: HIV-1 Env of pseudovirus ZM214M.PL15 (HIV-1)
[24] = target: HIV-1 Env of pseudovirus 9004SS_A3_4 (HIV-1)
[25] = target: HIV-1 Env of pseudovirus T250-4 (HIV-1)
[26] = target: HIV-1 Env of pseudovirus CNE52 (HIV-1)

10-1074 (antibody)
IC50, titer in TZM.bl cells [1]: > 50 µg/mL | IC80, titer in TZM.bl cells [1]: > 50 µg/mL | IC50, titer in TZM.bl cells [2]: 0.185 µg/mL | IC80, titer in TZM.bl cells [2]: 2.11 µg/mL | IC50, titer in TZM.bl cells [3]: 0.139 µg/mL | IC80, titer in TZM.bl cells [3]: 0.696 µg/mL | IC50, titer in TZM.bl cells [4]: 0.067 µg/mL | IC80, titer in TZM.bl cells [4]: 0.181 µg/mL | IC50, titer in TZM.bl cells [5]: > 50 µg/mL | IC80, titer in TZM.bl cells [5]: > 50 µg/mL | IC50, titer in TZM.bl cells [6]: > 50 µg/mL | IC80, titer in TZM.bl cells [6]: > 50 µg/mL | IC50, titer in TZM.bl cells [7]: 0.022 µg/mL | IC80, titer in TZM.bl cells [7]: 0.11 µg/mL | IC50, titer in TZM.bl cells [8]: 0.121 µg/mL | IC80, titer in TZM.bl cells [8]: 0.43 µg/mL | IC50, titer in TZM.bl cells [9]: < 0.001 µg/mL | IC80, titer in TZM.bl cells [9]: 0.005 µg/mL | IC50, titer in TZM.bl cells [10]: 0.038 µg/mL | IC80, titer in TZM.bl cells [10]: 0.272 µg/mL | IC50, titer in TZM.bl cells [11]: 0.069 µg/mL | IC80, titer in TZM.bl cells [11]: 0.367 µg/mL | IC50, titer in TZM.bl cells [12]: > 50 µg/mL | IC80, titer in TZM.bl cells [12]: > 50 µg/mL | IC50, titer in TZM.bl cells [13]: > 50 µg/mL | IC80, titer in TZM.bl cells [13]: > 50 µg/mL | IC50, titer in TZM.bl cells [14]: > 50 µg/mL | IC80, titer in TZM.bl cells [14]: > 50 µg/mL | IC50, titer in TZM.bl cells [15]: > 50 µg/mL | IC80, titer in TZM.bl cells [15]: > 50 µg/mL | IC50, titer in TZM.bl cells [16]: 0.032 µg/mL | IC80, titer in TZM.bl cells [16]: 0.128 µg/mL | IC50, titer in TZM.bl cells [17]: 0.17 µg/mL | IC80, titer in TZM.bl cells [17]: 0.634 µg/mL | IC50, titer in TZM.bl cells [18]: > 50 µg/mL | IC80, titer in TZM.bl cells [18]: > 50 µg/mL | IC50, titer in TZM.bl cells [19]: 0.847 µg/mL | IC80, titer in TZM.bl cells [19]: 4.7 µg/mL | IC50, titer in TZM.bl cells [20]: 0.022 µg/mL | IC80, titer in TZM.bl cells [20]: 0.111 µg/mL | IC50, titer in TZM.bl cells [21]: > 50 µg/mL | IC80, titer in TZM.bl cells [21]: > 50 µg/mL | IC50, titer in TZM.bl cells [22]: 0.006 µg/mL | IC80, titer in TZM.bl cells [22]: 0.021 µg/mL | IC50, titer in TZM.bl cells [23]: 0.174 µg/mL | IC80, titer in TZM.bl cells [23]: 2.37 µg/mL | IC50, titer in TZM.bl cells [24]: 0.011 µg/mL | IC80, titer in TZM.bl cells [24]: 0.03 µg/mL | IC50, titer in TZM.bl cells [25]: < 0.001 µg/mL | IC80, titer in TZM.bl cells [25]: 0.005 µg/mL | IC50, titer in TZM.bl cells [26]: 1.23 µg/mL | IC80, titer in TZM.bl cells [26]: 13.1 µg/mL

10E8 (antibody)
IC50, titer in TZM.bl cells [1]: 3.52 µg/mL | IC80, titer in TZM.bl cells [1]: > 10 µg/mL | IC50, titer in TZM.bl cells [2]: 0.094 µg/mL | IC80, titer in TZM.bl cells [2]: 1.23 µg/mL | IC50, titer in TZM.bl cells [3]: 0.058 µg/mL | IC80, titer in TZM.bl cells [3]: 0.319 µg/mL | IC50, titer in TZM.bl cells [4]: 1.9 µg/mL | IC80, titer in TZM.bl cells [4]: > 10 µg/mL | IC50, titer in TZM.bl cells [5]: 2.11 µg/mL | IC80, titer in TZM.bl cells [5]: > 10 µg/mL | IC50, titer in TZM.bl cells [6]: 0.798 µg/mL | IC80, titer in TZM.bl cells [6]: 3.89 µg/mL | IC50, titer in TZM.bl cells [7]: 0.132 µg/mL | IC80, titer in TZM.bl cells [7]: 1.53 µg/mL | IC50, titer in TZM.bl cells [8]: 0.109 µg/mL | IC80, titer in TZM.bl cells [8]: 0.837 µg/mL | IC50, titer in TZM.bl cells [9]: 1.25 µg/mL | IC80, titer in TZM.bl cells [9]: 6.58 µg/mL | IC50, titer in TZM.bl cells [10]: 0.134 µg/mL | IC80, titer in TZM.bl cells [10]: 1.03 µg/mL | IC50, titer in TZM.bl cells [11]: 0.171 µg/mL | IC80, titer in TZM.bl cells [11]: 1.19 µg/mL | IC50, titer in TZM.bl cells [12]: 0.148 µg/mL | IC80, titer in TZM.bl cells [12]: 0.802 µg/mL | IC50, titer in TZM.bl cells [13]: 1.18 µg/mL | IC80, titer in TZM.bl cells [13]: 7.42 µg/mL | IC50, titer in TZM.bl cells [14]: 1.51 µg/mL | IC80, titer in TZM.bl cells [14]: 6.29 µg/mL | IC50, titer in TZM.bl cells [15]: 1.22 µg/mL | IC80, titer in TZM.bl cells [15]: 7.71 µg/mL | IC50, titer in TZM.bl cells [16]: 5.16 µg/mL | IC80, titer in TZM.bl cells [16]: > 10 µg/mL | IC50, titer in TZM.bl cells [17]: 0.475 µg/mL | IC80, titer in TZM.bl cells [17]: 4.78 µg/mL | IC50, titer in TZM.bl cells [18]: 0.156 µg/mL | IC80, titer in TZM.bl cells [18]: 0.884 µg/mL | IC50, titer in TZM.bl cells [19]: 0.384 µg/mL | IC80, titer in TZM.bl cells [19]: 1.96 µg/mL | IC50, titer in TZM.bl cells [20]: 2.22 µg/mL | IC80, titer in TZM.bl cells [20]: 9.94 µg/mL | IC50, titer in TZM.bl cells [21]: 0.88 µg/mL | IC80, titer in TZM.bl cells [21]: 5.78 µg/mL | IC50, titer in TZM.bl cells [22]: 6.71 µg/mL | IC80, titer in TZM.bl cells [22]: > 10 µg/mL | IC50, titer in TZM.bl cells [23]: 1.96 µg/mL | IC80, titer in TZM.bl cells [23]: > 10 µg/mL | IC50, titer in TZM.bl cells [24]: 1.16 µg/mL | IC80, titer in TZM.bl cells [24]: 6.76 µg/mL | IC50, titer in TZM.bl cells [25]: 1.35 µg/mL | IC80, titer in TZM.bl cells [25]: 8.13 µg/mL | IC50, titer in TZM.bl cells [26]: 0.304 µg/mL | IC80, titer in TZM.bl cells [26]: 3.06 µg/mL

PG9 (antibody)
IC50, titer in TZM.bl cells [1]: 0.045 µg/mL | IC80, titer in TZM.bl cells [1]: 0.172 µg/mL | IC50, titer in TZM.bl cells [2]: 0.01 µg/mL | IC80, titer in TZM.bl cells [2]: 0.037 µg/mL | IC50, titer in TZM.bl cells [3]: 0.037 µg/mL | IC80, titer in TZM.bl cells [3]: 0.137 µg/mL | IC50, titer in TZM.bl cells [4]: 0.038 µg/mL | IC80, titer in TZM.bl cells [4]: 0.094 µg/mL | IC50, titer in TZM.bl cells [5]: 1.48 µg/mL | IC80, titer in TZM.bl cells [5]: 8.72 µg/mL | IC50, titer in TZM.bl cells [6]: 0.04 µg/mL | IC80, titer in TZM.bl cells [6]: 0.173 µg/mL | IC50, titer in TZM.bl cells [7]: 0.117 µg/mL | IC80, titer in TZM.bl cells [7]: 0.845 µg/mL | IC50, titer in TZM.bl cells [8]: 0.606 µg/mL | IC80, titer in TZM.bl cells [8]: 1.6 µg/mL | IC50, titer in TZM.bl cells [9]: 0.052 µg/mL | IC80, titer in TZM.bl cells [9]: 0.278 µg/mL | IC50, titer in TZM.bl cells [10]: 6.34 µg/mL | IC80, titer in TZM.bl cells [10]: 38.3 µg/mL | IC50, titer in TZM.bl cells [11]: 20.6 µg/mL | IC80, titer in TZM.bl cells [11]: > 50 µg/mL | IC50, titer in TZM.bl cells [12]: 0.899 µg/mL | IC80, titer in TZM.bl cells [12]: 4.52 µg/mL | IC50, titer in TZM.bl cells [13]: 0.02 µg/mL | IC80, titer in TZM.bl cells [13]: 0.055 µg/mL | IC50, titer in TZM.bl cells [14]: 0.166 µg/mL | IC80, titer in TZM.bl cells [14]: 1.41 µg/mL | IC50, titer in TZM.bl cells [15]: 0.196 µg/mL | IC80, titer in TZM.bl cells [15]: 0.698 µg/mL | IC50, titer in TZM.bl cells [16]: 0.043 µg/mL | IC80, titer in TZM.bl cells [16]: 0.202 µg/mL | IC50, titer in TZM.bl cells [17]: 0.503 µg/mL | IC80, titer in TZM.bl cells [17]: 4.06 µg/mL | IC50, titer in TZM.bl cells [18]: 24.5 µg/mL | IC80, titer in TZM.bl cells [18]: > 50 µg/mL | IC50, titer in TZM.bl cells [19]: 0.101 µg/mL | IC80, titer in TZM.bl cells [19]: 0.45 µg/mL | IC50, titer in TZM.bl cells [20]: > 50 µg/mL | IC80, titer in TZM.bl cells [20]: > 50 µg/mL | IC50, titer in TZM.bl cells [21]: 0.037 µg/mL | IC80, titer in TZM.bl cells [21]: 0.124 µg/mL | IC50, titer in TZM.bl cells [22]: > 50 µg/mL | IC80, titer in TZM.bl cells [22]: > 50 µg/mL | IC50, titer in TZM.bl cells [23]: > 50 µg/mL | IC80, titer in TZM.bl cells [23]: > 50 µg/mL | IC50, titer in TZM.bl cells [24]: 0.088 µg/mL | IC80, titer in TZM.bl cells [24]: 0.251 µg/mL | IC50, titer in TZM.bl cells [25]: 0.005 µg/mL | IC80, titer in TZM.bl cells [25]: 0.014 µg/mL | IC50, titer in TZM.bl cells [26]: 0.029 µg/mL | IC80, titer in TZM.bl cells [26]: 0.081 µg/mL
